How the values were obtained:
[1] = target: T1, mouse CCR6 (mouse, UniProt O54689 1-367); test: not given; premise of the human/mouse hybrid mapping
T1 construct: also called mmCCR6; murine CCR6
T1 sequence: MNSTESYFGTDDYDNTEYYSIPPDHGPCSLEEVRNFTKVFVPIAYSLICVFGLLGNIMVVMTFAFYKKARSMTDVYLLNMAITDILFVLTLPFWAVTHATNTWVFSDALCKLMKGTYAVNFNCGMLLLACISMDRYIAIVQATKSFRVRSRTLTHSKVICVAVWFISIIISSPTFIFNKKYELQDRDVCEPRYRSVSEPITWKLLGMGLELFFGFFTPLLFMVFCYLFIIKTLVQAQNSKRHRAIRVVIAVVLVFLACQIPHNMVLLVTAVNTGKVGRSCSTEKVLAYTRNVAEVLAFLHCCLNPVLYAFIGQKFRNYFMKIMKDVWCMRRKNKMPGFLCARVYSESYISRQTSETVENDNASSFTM

[2] = target: T2, hsCCR6/mmN-term (human/mouse hybrid, UniProt P51684 36-374); test: flow cytometry on transfected cells (Murine Nter, Human loops 1-3), PE-labelled secondary antibody
T2 construct: also called mutant 4; human CCR6 receptor containing a mouse N-terminal region
T2 chain: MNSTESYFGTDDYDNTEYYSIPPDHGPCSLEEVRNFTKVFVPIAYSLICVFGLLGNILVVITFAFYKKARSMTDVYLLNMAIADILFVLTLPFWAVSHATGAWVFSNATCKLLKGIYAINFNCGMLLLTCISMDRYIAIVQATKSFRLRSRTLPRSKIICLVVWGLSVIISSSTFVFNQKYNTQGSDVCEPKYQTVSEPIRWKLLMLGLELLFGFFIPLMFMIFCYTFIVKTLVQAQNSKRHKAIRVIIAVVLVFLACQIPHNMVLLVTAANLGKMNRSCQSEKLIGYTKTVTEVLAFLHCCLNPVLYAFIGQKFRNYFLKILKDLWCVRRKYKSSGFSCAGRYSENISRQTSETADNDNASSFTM
Method: (§1) Binding of the chimeric 4H11 antibody to human/mouse CCR6 hybrid constructs was evaluated by flow cytometry. Human/mouse CCR6 transfectants were counted and 2×10⁵ cells were incubated with 10 μg/ml of chimeric 4H11 antibody. Binding activity of 4H11 was detected with anti-human IgG-PE. To evaluate good expression of the human/mouse chimera on cells, two commercial antibodies directed against human and mouse CCR6 were used. Histogram plots show the geometric mean of fluorescence intensity (Y-axis) measured by flow cytometry
(§2) Binding of MAb to the surface of CCR6 transfected CHO cells was assessed using flow cytometry. 2×10⁵ cells were distributed in a 96 well V bottom plate and centrifuged for three minutes at 1300 rpm. Cells were collected and incubated with the appropriate mAb at a final concentration of 10 μg/ml in a volume of 50 μl in FACS buffer. Cells were incubated for 30 minutes on ice, washed twice and resuspended in 50 μl of PE-labelled secondary antibody diluted at 1/200 in FACS buffer. Cells were incubated for 15 minutes on ice, washed once, resuspended in 400 μl of FACS buffer and analyzed on the FACS instrument (Cyan, Beckman Coulter) in channel FL-2.

[3] = target: T3, mmCCR6/hsN-term (human/mouse hybrid); test: flow cytometry on transfected cells (Human Nter, Murine loops 1-3), 10 µg/ml, PE-labelled secondary antibody
T3 construct: also called mutant 5; mouse CCR6 receptor containing a human N-terminal region
T3 chain: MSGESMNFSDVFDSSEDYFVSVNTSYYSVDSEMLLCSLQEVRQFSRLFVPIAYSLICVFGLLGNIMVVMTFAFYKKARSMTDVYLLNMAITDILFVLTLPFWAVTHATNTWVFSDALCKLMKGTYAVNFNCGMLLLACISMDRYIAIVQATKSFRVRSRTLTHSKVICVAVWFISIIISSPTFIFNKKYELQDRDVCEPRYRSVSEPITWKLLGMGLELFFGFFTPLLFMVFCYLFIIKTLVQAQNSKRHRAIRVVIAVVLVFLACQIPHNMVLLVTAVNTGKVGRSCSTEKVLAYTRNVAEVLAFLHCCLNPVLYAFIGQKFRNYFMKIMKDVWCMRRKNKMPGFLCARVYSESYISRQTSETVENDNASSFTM
Method: as §1, §2

[4] = target: T4, hsCCR6/mmECL2 (human/mouse hybrid, UniProt P51684 1-374); test: flow cytometry on transfected cells (Human Nter, only loop 2 drawn black as murine), 10 µg/ml, PE-labelled secondary antibody
T4 construct: also called second mutant; pT1-hsCCR6/mmECL2
T4 chain: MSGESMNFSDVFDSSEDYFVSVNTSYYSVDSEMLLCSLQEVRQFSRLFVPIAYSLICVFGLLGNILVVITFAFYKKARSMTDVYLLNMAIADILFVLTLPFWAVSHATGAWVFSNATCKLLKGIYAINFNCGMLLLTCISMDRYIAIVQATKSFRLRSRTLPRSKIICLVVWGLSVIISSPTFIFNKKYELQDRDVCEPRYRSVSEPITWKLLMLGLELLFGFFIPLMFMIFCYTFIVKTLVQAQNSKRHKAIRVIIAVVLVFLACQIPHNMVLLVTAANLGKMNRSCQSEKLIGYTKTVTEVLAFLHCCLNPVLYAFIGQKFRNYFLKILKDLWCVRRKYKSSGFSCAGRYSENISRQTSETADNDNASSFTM
Method: as §1, §2

[5] = target: T5, hsCCR6/mmECL3 (human/mouse hybrid, UniProt P51684 1-374); test: flow cytometry on transfected cells (Human Nter, only loop 3 drawn black as murine), 10 µg/ml, PE-labelled secondary antibody
T5 construct: also called third mutant; pT1-hsCCR6/mmECL3
T5 chain: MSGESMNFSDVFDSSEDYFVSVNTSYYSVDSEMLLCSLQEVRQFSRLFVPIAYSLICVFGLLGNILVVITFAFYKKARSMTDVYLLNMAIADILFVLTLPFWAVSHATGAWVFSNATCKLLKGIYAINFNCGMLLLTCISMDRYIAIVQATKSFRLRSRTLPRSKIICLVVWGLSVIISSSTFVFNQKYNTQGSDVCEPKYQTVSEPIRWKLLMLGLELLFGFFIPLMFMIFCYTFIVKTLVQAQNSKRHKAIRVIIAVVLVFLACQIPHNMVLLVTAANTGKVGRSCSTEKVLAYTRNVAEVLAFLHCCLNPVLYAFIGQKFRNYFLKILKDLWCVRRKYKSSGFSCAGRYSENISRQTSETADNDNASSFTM
Method: as §1, §2

[6] = target: T6, hsCCR6/mmECL1 (human/mouse hybrid, UniProt P51684 1-374); test: flow cytometry on transfected cells (Human Nter, Murine loop 1, Human loops 2 and 3), 10 µg/ml, PE-labelled secondary antibody
T6 construct: also called first mutant; pT1-hsCCR6/mmECL1
T6 chain: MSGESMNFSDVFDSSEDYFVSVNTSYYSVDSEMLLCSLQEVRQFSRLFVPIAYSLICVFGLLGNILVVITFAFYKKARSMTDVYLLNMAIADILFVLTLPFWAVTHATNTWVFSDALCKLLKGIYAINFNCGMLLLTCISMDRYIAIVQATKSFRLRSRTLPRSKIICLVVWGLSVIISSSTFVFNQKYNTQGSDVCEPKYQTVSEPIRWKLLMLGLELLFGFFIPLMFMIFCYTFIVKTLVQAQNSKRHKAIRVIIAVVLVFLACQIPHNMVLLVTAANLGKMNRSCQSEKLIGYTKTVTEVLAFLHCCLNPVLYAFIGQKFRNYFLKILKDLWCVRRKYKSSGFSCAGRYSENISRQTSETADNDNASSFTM
Method: as §1, §2

B1: chimeric 4H11 antibody (antibody, human IgG1, kappa, V domains shown)
VH: EVKLVESGGGLVQPGGSLKLSCATSGFSFSDYYMYWIRQTPEKRLEWVAYITNGGITYYPDTVKGRFTISRDNAKNTLYLQMSRLRSEDTAMYYCTSPLRGAWFAYWGQGTLVTVSS
VL: DVIMTQSPLSLPVSLGDQASISCRSSQSIVHSNGNTYLEWYLQKPGQSPKLLIYKVSNRFSGVPDRFSGSGSGTDFTLKISRVEAEDLGLYYCFQGSHVPLTFGAGTKLEIKR
notes: also called chimeric 4H11 mAb; 4H11 chimeric antibody
**Q.** Does B1 bind [1]?
**A.** no binding

**Q.** Does B1 bind [2]?
**A.** no binding (tested: 10 µg/ml)

**Q.** Does B1 bind [3]?
**A.** binds

**Q.** Does B1 bind [4]?
**A.** binds

**Q.** Does B1 bind [5]?
**A.** binds

**Q.** Does B1 bind [6]?
**A.** binds
